Assay results published in US11203633B2, “Polynucleotides encoding antibodies or antigen binding fragments thereof that bind pseudomonas perv” (priority 2011, dated 2021).
Where a chain is given by its changes, count along the chain named.

Columns and labels:
[1] = test system: P. aeruginosa strains (PAO1, 33356, 6294, 6077, 6206); assay: Acute pneumonia model in mice, organ burden (CFU in lung, spleen, kidneys); type: in vivo, Pseudomonas aeruginosa
Description: (§1) Antibodies or PBS were administered 24 hours before infection in each model. P. aeruginosa acute pneumonia, keratitis, and thermal injury infection models were performed as described (DiGiandomenico, A., et al., Proc Natl Acad Sci USA 104, 4624-4629 (2007)), with modifications. In the acute pneumonia model, BALB/c mice (The Jackson Laboratory) were infected with P. aeruginosa strains suspended in a 0.05 ml inoculum. In the thermal injury model, CF-1 mice (Charles River) received a 10% total body surface area burn with a metal brand heated to 92° C. for 10 seconds. Animals were infected subcutaneously with P. aeruginosa strain 6077 at the indicated dose. For organ burden experiments, acute pneumonia was induced in mice followed by harvesting of lungs, spleens, and kidneys 24 hours post-infection for determination of CFU.
Organ burden of Pseudomonas-infected mice was also studied in response to administration of V2L2. FIG. 14 (A) Mice were treated with either 1 mg/kg R347 (control), or 1 mg/kg, 0.2 mg/kg, or 0.07 mg/kg of V2L2 and then were infected intranasally with 1.2×10^6 cfu of Pseudomonas 6206. FIG. 14 (B) Mice were also treated with either 15 mg/kg R347 (negative control); 15.0 mg/kg, 5.0 mg/kg, or 1.0 mg/kg mAb166 (positive control); or 5.0 mg/kg, 1.0 mg/kg, or 0.2 mg/kg V2L2 and then were infected intranasally with 5.5×10^6 cfu of Pseudomonas 6206.
The in vivo effect of combination administration of anti-Psl and anti-PcrV binding domains was further studied in mice using the antibodies V2L2 and WapR-004 (RAD). Groups of mice were treated with R347 (2.1 mg/kg—negative control), V2L2 (0.1 mg/kg), W4-RAD (0.5 mg/kg), or V2L2/W4 combination (either 0.1, 0.5, 1.0 or 2.0 mg/kg each). Twenty-four hours post-administration of antibody, all mice were infected with an inoculum containing 5.25×10^5 cfu 6206 (O11-ExoU+). Twenty-four hours post infection, lungs, spleens, and kidneys were harvested, homogenized, and plated for colony forming unit (CFU) identification per gram of tissue.

[2] = test system: P. aeruginosa strains 6206 and 6294; assay: Acute pneumonia model in mice, histological examination of lung tissue; type: in vivo, Pseudomonas aeruginosa
[3] = test system: P. aeruginosa strains (PAO1, 33356, 6294, 6077, 6206, PA103A); assay: Acute pneumonia model in mice, survival; type: in vivo, Pseudomonas aeruginosa; conditions: for protection in vivo: strain 6077 (1×10^6 CFU/animal) intranasal, mAbs IP 24 hours prior, 11A6, 3G5, V2L7 5 or 1 mg/kg, 29D2 and V2L2 25 mg/kg, FIG. 13E-G
Description: as §1
The in vivo effect of administration of an anti-PcrV antibodies was studied in mice using an acute pneumonia model. Groups of mice were treated with either increasing concentrations of the V2L2 antibody, a positive control anti-PcrV antibody (mAb166), or a negative control (R347), as shown in FIG. 13 (A-B). Groups of mice were also treated with either increasing concentrations of the V2L2 antibody, the PcrV antibody PcrV-02, or a negative control (R347), as shown in FIG. 13 (C-D). Twenty-four hours after treatment, all mice were infected with 5×10^7 CFU (C) Pseudomonas aeruginosa 6294 (06) or (D) PA103A (O11).
Groups of mice were treated with either increasing concentrations of the 11A6, 3G5 or V2L7, the same concentrations of 29D2, 1F3, 1E6, V2L2, LE10, SH3, 4A8, 2H3, or 21F1, increasing concentrations of the 29D2, increasing concentrations of the V2L2, the PcrV antibody PcrV-02, or a negative control (R347), as shown in FIG. 13 (E-H). Mice were injected intraperitoneally (IP) with mAbs 24 hours prior to intranasal infection with Pseudomonas strain 6077 (1×10^6 CFU/animal).

[4] = test system: P. aeruginosa (6077 exoU+; 6206) lysis of rabbit red blood cells; assay: Rabbit red blood cell (RBC) lysis inhibition assay; type: cell-based, Pseudomonas aeruginosa; conditions: for prevention of RBC lysis: strain 6077, FIG. 12D-E
Description: Percent inhibition of cytotoxicity analysis was analysed for the parental V2L2 mAb, mAb166 (positive control) and R347 (negative control), where the antibodies were administered to cultured broncho-epithelial cell line A549 combined with log-phase P. aeruginosa strain 6077 (exoU+) at a MOI of approximately 10. A549 lysis was assayed by measuring released lactate dehydrogenase (LDH) activity and lysis in the presence of mAbs was compared to wells without mAb to determine percent inhibition. The V2L2 mAb, mAb166 (positive control) and R347 (negative control) were evaluated for their ability to prevent lysis of RBCs, where the antibodies were mixed with log-phase P. aeruginosa 6077 (exoU^+) and washed rabbit red blood cells (RBCs) and incubated for 2 hours at 37°. Intact RBCs were pelleted and the extent of lysis determined by measuring the OD405 of the cell-free supernatant. Lysis in the presence of anti-PcrV mAbs was compared to wells without mAb to determine percent inhibition. The positive control antibody, mAb166, is a previously characterized anti-PcrV antibody (J Infect Dis. 186: 64-73 (2002), Crit Care Med. 40: 2320-2326 (2012)).

[5] = test system: luminescent P. aeruginosa serogroup 05 strain (PAO1.lux); assay: Opsonophagocytic killing (OPK) assay, PAO1.lux; type: cell-based, Pseudomonas aeruginosa; conditions: FIG. 11 A-Q
Description: This example describes the evaluation of prioritized human IgG1 antibodies to promote OPK of P. aeruginosa. […] OPK assays were performed as described in (DiGiandomenico, A., et al., Infect Immun 72, 7012-7021 (2004)), with modifications. Briefly, assays were performed in 96-well plates using 0.025 ml of each OPK component; P. aeruginosa strains; diluted baby rabbit serum; differentiated HL-60 cells; and monoclonal antibody. In some OPK assays, luminescent P. aeruginosa strains, which were constructed as described (Choi, K. H., et al., Nat Methods 2, 443-448 (2005)), were used. Luminescent OPK assays were performed as described above but with determination of relative luciferase units (RLUs) using a Perkin Elmer ENVISION Multilabel plate reader (Perkin Elmer).

[6] = strain 6206 intranasal, V2L2 0.07-5 mg/kg, FIG. 14A-B
[7] = Table 5, 6206 5.25×10^5 cfu, R347 2.1 mg/kg, V2L2 0.1 mg/kg, WapR-004 0.5 mg/kg
[8] = Table 6A, strain 6294 1.33×10^7 CFU, 0.2 mg/kg (combination 0.1 mg/kg ea)
[9] = Table 6B, strain 6294 1.7×10^7 CFU, 0.2 mg/kg (combination 0.1 mg/kg ea)
[10] = Table 7, strain 6206 9.25×10^5 CFU, 0.2 mg/kg (combination 0.1 mg/kg ea)

B1: V2L2: anti-PcrV monoclonal antibody; VH SEQ ID NO:216, VL SEQ ID NO:217 (antibody, V domains shown)
VH: EMQLLESGGGLVQPGGSLRLSCAASGFTFSSYAMNWVRQAPGEGLEWVSAITISGITAYYTDSVKGRFTISRDNSKNTLYLQMNSLRAGDTAVYYCAKEEFLPGTHYYYGMDVWGQGTTVTVSS
VL: AIQMTQSPSSLSASVGDRVTITCRASQGIRNDLGWYQQKPGKAPKLVIYSASTLQSGVPSRFSGSGSGTDFTLSISSLQPDDFATYYCLQDYNYPWTFGQGTKVEIK
modifications: V2L2 VH; V2L2 VL
organ burden ([1]; 6206 (O11-ExoU+) 5.25×10^5 cfu, V2L2 0.1 mg/kg, W4-RAD 0.5 mg/kg, FIG. 15): effective in lowering organ burden | reduction in organ CFU compared to mAb166 ([1]; strain 6206, similar doses, FIG. 14B): significantly greater reduction in organ CFU than mAb166 at similar doses | clearance in the kidney [1, 6]: little effect on clearance in the kidney | dissemination to lung and spleen [1, 6]: greatly reduced dissemination to both the lung and spleen in a dose-dependent manner | Inflammatory Infiltrate [2, 7]: PMN 3+ | Involved Lung Surface Area [2, 7]: 55% | Overall Impression [2, 7]: Broncho interstitial pneumonia | Overall Impression ([2]; Table 6A, BALB/c mice, strain 6294 1.33×10^7 CFU, 0.2 mg/kg (combination 0.1 mg/kg ea)): Broncho interstitial pneumonia | Bacteria [2, 8]: Neg-1+ | Hemorrhage (extent) [2, 8]: Extensive | Inflammatory Infiltrate [2, 8]: PMN 3+ | Involved Lung Surface Area [2, 8]: (57%), mild epithelial injury, | Overall Impression ([2]; Table 6B, BALB/c mice, strain 6294 1.7×10^7 CFU, 0.2 mg/kg (combination 0.1 mg/kg ea)): Broncho interstitial pneumonia | Bacteria [2, 9]: Neg | Inflammatory Infiltrate [2, 9]: PMN 2+ | Involved Lung Surface Area [2, 9]: (30%), mild epithelial injury, | Overall Impression ([2]; Table 7, BALB/c mice, strain 6206 9.25×10^5 CFU, 0.2 mg/kg (combination 0.1 mg/kg ea)): Broncho interstitial pneumonia | Inflammatory Infiltrate [2, 10]: PMN 2-3+ | Involved Lung Surface Area [2, 10]: (40%), mild epithelial injury, | survival ([3]; 6206, Bs3-V2L2 0.28 mg/kg, V2L2 0.2 mg/kg, monitored 120 hours, FIG. 21A): survived | protection against additional strains ([3]; 6294 and PA103A, 0.04-5 mg/kg, FIG. 13I): protects against additional Pseudomonas strains (i.e., 6294 and PA103A) | survival ([3]; increasing concentrations 24 hours before infection, strains 6077, 6294, PA103A, FIG. 13A-D): dose-dependent effect on improved survival even out to 168 hours post-infection | protection compared to mAb166 ([3]; similar doses, strains 6077 and 6294, FIG. 13A-B): significantly more potent protection than mAb166 at similar doses | protection in vivo [3]: provides protection in vivo | potency in prevention of RBC lysis, V2L2 vs 29D2 ([4]; FIG. 12F): more potent in prevention of RBC lysis than the 29D2

B2: V2L2-GL: V2L2-germlined mAb (antibody, V domains shown)
VH: B1 VH with M2V, E43K, G89E
VL: B1 VL
modifications: V2L2-GL VH; V2L2-MD and V2L2-GL VL
notes: V2L2-germlined mAb
prevention of RBC lysis [4]: demonstrated prevention of RBC lysis

B3: Psl0225: lead optimized anti-Psl clone; VH SEQ ID NO:290, VL SEQ ID NO:291 (antibody, V domains shown)
VH: QVQLQESGPGLVKPSETLSLTCTVSGGSISPYYWTWIRQPPGKGLELIGYIHSSGYTDYNPSLKSRVTISGDTSKKQFSLKLSSVTAADTAVYYCARAMDIEPHALDIWGQGTMVTVSS
VL: DIQLTQSPSSLSASVGDRVTITCRASQSIRSHLNWYQQKPGKAPKLLIYGASNLQSGVPSRFSGSGSGTDFTLTISSLQPEDFATYYCQQSDDGFPNFGGGTKVEIK
modifications: Psl0225-Germline VH; Psl0225-Germline VL
OPK activity of lead optimized anti-Psl mAbs [5]: enhanced OPK activity

B4: Psl0588: lead optimized anti-Psl clone; VH SEQ ID NO:292, VL SEQ ID NO:293 (antibody, V domains shown)
VH: B3 VH with M99D, I101P, E102F, H104G, A105Y
VL: B3 VL with D93T, G94F, F95P, P96L, N97K
modifications: Psl0588-Germline VH
OPK activity of lead optimized anti-Psl mAbs [5]: enhanced OPK activity

B5: Psl0337: lead optimized anti-Psl clone; VH SEQ ID NO:295, VL SEQ ID NO:296 (antibody, V domains shown)
VH: B3 VH with M99D, D100W, I101D, E102H, P103K
VL: B3 VL with Q90D, D92S, D93S, G94W, F95P, P96L, N97T
modifications: Psl0337-Germline VH; Psl0337-Germline VL
OPK activity of lead optimized anti-Psl mAbs [5]: enhanced OPK activity

B6: 29D2: anti-PcrV mAb, epitope class 3 (antibody, V domains shown)
VH: EVQLLESGGGLVQPGGSLRLSCAASGFTFSSYAMSWVRQAPGKGLEWVSAISGSGYSTYYADSVKGRFTMSRDNSKNTLYLQMNSLRAEDTAVYYCAAEYSISSNYYYGMDVWGQGTTVTVSS
VL: DIQLTQSPSFLSASVGDRVTITCWASQGISSYLAWYQQKPGKAPKLLIYAASTLQSGVPSRFSGSGSGTEFTLTISSLQPEDFATYYCQQLNSSPLTFGGGTKVEIK
modifications: 29D2 VH; 29D2 VL
protection in vivo [3]: provides protection in vivo | prevention of RBC lysis [4]: demonstrated prevention of RBC lysis
